From patent US20250171532A1 (NB HEALTH LABORATORY, published 2025) come the findings set out here.

The target in assay [1] is T1, mouse LPA1 (mouse, UniProt P61793 1-364). Kind of assay: cell-based or functional assay.
For assay [2], the target named is T2, human LPA1 (human, UniProt Q92633 1-364). Kind of assay: cell-based or functional assay.
Assay [3] deals with T2, human LPA1. Kind of assay: flow cytometry, human LPA1-stably expressing CHO cells, median fluorescence intensity. An excerpt: (§1) The human LPA1-stably expressing CHO cell and the mouse LPA1-stably expressing CHO cell were washed with PBS, then detached from the cell culture dishes by an enzyme-free cell dissociation buffer (Thermo Fisher Scientific, Inc.), then washed with PBS, and then collected by centrifugation. The human LPA1-stably expressing CHO cell and the mouse LPA1-stably expressing CHO cell were suspended at 1×10⁷ cells/mL in Fc Block (Sci-Tech Biosciences, Inc.) diluted by 500 times in FACS buffer, and then allowed to stand at 4° C. for 30 minutes to block the cells. The cells were collected by centrifugation and suspended in FACS buffer at 4×10⁶ cells/mL, and this suspension was dispensed into a V-bottom 96-well plate (Thermo Fisher Scientific, Inc.) at 25 μL (1×10⁵ cells)/well. As primary antibodies, the eleven types of LPA1 antibodies produced and purified by the method described above and a mouse isotype control antibody (Fujifilm Wako Pure Chemicals Corporation) were diluted stepwise, which was added to each well at 25 μL/well, and allowed to stand at 4° C. for 1 hour. The cells were collected by centrifugation and washed with 120 μL of FACS buffer. This washing operation was repeated twice. To the cell sediment, 25 μL each of Goat Anti-Mouse IgG H&L (DyLight 650) (Abcam) that was a secondary antibody diluted by 500 times in FACS buffer was dispensed, then suspended, and then allowed to stand at 4° C. for 1 hour. The cells were washed twice, then suspended in 50 μL of FACS buffer, and the binding of antibodies to the cells was measured using a flow cytometer (Agilent Novocyte).
(§2) A graph was created, in which a concentration of the antibody was plotted on the […] axis, and a median fluorescence intensity of the flow cytometer histogram was plotted on the horizontal axis. All of the eleven antibodies were confirmed to dose-dependently bind to the human LPA1-stably expressing CHO cell and the mouse LPA1-stably expressing CHO cell. The results of the binding of each antibody to the human LPA1-stably expressing CHO cell are presented in FIG. 2A to FIG. 2K, and the results of the binding of each antibody to the mouse LPA1-stably expressing CHO cell are presented in FIG. 3A to FIG. 3K.

The target in assay [4] is T1, mouse LPA1. The assay can be described thus: flow cytometry, mouse LPA1-stably expressing CHO cells, median fluorescence intensity.
From the text: as §1, §2

The target of assay [5] is T2, human LPA1. Kind of assay: cell-based or functional assay. This is another data set of the same source.
Assay [6] deals with T3, mouse LPA3 with FLAG tag (mouse LPA3 gene transfected cell) (mouse, UniProt Q9EQ31 1-354).
T3 construct: not shown: FLAG tag added at the 5' terminal of the gene
T3 sequence: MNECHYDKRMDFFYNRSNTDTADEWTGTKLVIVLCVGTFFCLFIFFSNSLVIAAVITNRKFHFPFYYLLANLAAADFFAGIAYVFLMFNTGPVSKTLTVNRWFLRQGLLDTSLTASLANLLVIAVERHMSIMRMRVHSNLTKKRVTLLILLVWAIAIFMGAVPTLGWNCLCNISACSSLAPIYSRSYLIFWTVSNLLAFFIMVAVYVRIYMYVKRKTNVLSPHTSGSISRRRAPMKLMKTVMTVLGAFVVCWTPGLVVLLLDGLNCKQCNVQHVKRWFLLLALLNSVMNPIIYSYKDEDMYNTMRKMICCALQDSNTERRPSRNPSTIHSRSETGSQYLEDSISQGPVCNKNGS
The assay can be described thus: flow cytometry, transfected HEK293FT cells, histogram shift. How it is done:
(§3) BTEK293FT cell was transfected with 10 μg of an expression vector carrying each synthetic gene using Lipofectamine 2000, to prepare a human LPA1 gene transfected cell, a mouse LPA1 gene transfected cell, a human LPA2 gene transfected cell, a mouse LPA2 gene transfected cell, a human LPA3 gene transfected cell, and a mouse LPA3 gene transfected cell.
(§4) The next day, the cells were washed with PBS, then detached from the cell culture dishes by an enzyme-free cell dissociation buffer (Thermo Fisher Scientific, Inc.), then washed with PBS, and then collected by centrifugation. Goat serum (Thermo Fisher Scientific, Inc.) was diluted by 2 times in FACS buffer (PBS containing 1% o of FBS), into which the cells were suspended at 1×10⁷ cells/mL. This suspension was allowed to stand at 4° C. for 30 minutes to block the cells. The cells were collected by centrifugation and suspended in FACS buffer at 4×10⁶ cells/mL, and this suspension was dispensed into a V-bottom 96-well plate (Thermo Fisher Scientific, Inc.) at 25 μL (1×10⁵ cells)/well.
(§5) The cells were collected by centrifugation and washed with 120 μL of FACS buffer. This washing operation was repeated twice. To the cell sediment, 25 μL each of Goat Anti-Mouse IgG H&L (DyLight 650) (Abcam) that was a secondary antibody diluted by 500 times in FACS buffer was dispensed, then suspended, and then allowed to stand at 4° C. for 1 hour. The cells were washed twice, then suspended in 50 μL of FACS buffer, and the whole content thereof was transferred to a V-bottom 96-well plate (Greiner), to measure the binding of antibodies to the cells using a flow cytometer (Agilent Novocyte).

Assay [7] concerns the target T4, human LPA2 with FLAG tag (human LPA2 gene transfected cell) (human, UniProt Q9HBW0 1-348).
T4 construct: also called EDG4; not shown: FLAG tag added at the 5' terminal of the gene
Described as above. Here is the method:
as §3, §4, §5

The target in assay [8] is T5, mouse LPA2 with FLAG tag (mouse LPA2 gene transfected cell) (mouse, UniProt Q9JL06 1-348).
T5 construct: not shown: FLAG tag added at the 5' terminal of the gene
The description is as above. Here is the method: as §3, §4, §5

In assay [9] the target is T6, human LPA3 with FLAG tag (human LPA3 gene transfected cell) (human, UniProt Q9UBY5 1-353).
T6 construct: also called EDG7; not shown: FLAG tag added at the 5' terminal of the gene
T6 sequence: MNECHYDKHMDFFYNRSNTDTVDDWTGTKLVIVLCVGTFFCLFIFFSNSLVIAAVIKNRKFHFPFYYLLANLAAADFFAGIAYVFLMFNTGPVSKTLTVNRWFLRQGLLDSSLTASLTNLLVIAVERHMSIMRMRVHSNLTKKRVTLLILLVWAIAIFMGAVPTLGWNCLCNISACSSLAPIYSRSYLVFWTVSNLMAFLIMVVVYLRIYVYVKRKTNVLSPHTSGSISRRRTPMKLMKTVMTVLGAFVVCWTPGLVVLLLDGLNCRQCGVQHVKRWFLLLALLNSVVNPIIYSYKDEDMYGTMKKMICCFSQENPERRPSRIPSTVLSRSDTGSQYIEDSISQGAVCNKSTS
Described as above. Here is the method:
as §3, §4, §5

T4 sequence (Q9HBW0 other isoform, or with tags, fused parts or gaps): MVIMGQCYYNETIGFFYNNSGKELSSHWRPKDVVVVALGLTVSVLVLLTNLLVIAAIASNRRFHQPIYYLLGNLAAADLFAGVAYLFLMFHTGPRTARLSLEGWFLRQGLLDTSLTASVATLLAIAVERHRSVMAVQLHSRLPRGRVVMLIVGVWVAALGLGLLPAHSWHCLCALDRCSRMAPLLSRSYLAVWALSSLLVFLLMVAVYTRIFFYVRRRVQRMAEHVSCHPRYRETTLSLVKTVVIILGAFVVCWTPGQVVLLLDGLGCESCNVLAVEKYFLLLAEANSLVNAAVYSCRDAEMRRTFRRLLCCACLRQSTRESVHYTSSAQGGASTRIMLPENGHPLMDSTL
T2 sequence (Q92633 whole entry): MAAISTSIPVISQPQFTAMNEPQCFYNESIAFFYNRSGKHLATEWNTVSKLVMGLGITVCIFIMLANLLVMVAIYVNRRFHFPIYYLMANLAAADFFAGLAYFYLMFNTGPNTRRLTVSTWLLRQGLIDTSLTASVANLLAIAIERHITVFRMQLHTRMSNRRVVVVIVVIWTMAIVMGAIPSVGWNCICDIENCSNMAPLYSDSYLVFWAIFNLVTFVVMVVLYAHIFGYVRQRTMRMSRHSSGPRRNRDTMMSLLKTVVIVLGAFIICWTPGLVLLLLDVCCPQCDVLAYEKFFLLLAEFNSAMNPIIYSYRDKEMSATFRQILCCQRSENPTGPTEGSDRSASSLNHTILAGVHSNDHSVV
T1 sequence (P61793 whole entry): as the sequence (Q92633 whole entry) above, with I4A, I8S, P22Q, H40Y, I61V, E193D, N194H, I269V, S331N, T335N counted along it
T5 sequence (Q9JL06 whole entry): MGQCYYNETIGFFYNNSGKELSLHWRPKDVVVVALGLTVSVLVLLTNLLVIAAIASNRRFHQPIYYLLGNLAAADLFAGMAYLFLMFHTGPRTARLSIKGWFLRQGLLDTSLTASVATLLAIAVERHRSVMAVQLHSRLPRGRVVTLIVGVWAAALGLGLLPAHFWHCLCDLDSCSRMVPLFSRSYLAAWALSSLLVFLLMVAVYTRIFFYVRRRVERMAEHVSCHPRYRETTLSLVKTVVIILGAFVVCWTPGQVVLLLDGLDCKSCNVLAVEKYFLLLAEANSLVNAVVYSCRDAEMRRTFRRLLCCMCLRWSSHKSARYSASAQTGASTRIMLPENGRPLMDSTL

B1: 210309-1-C (antibody, mouse IgG1, V domains shown)
VH: QVHLQQSGAELARPGASVKLSCKASGYSFTAYGISWVQQRTGQGLEWIGEIYPRSGNTYYSEKFKGKATLTADKSSSTAYMELRSLTSEDSAVYFCARESLLKRLGWYFDVWGTGTTVTVSS
VL: DIQMTQSPASLSASVGETVTITCRASQNIYSFLAWYQQKQGNSPQLLVYNAKTLAEGVPSRFSGSGSGTQFSLKINSLQPEDFGSYYCQHHYGPPLTFGVGTKLELK
notes: Mouse monoclonal from human LPA1 immunization
In the case of B1, the “Intracellular cAMP signaling inhibition (Inhibition rate %/100 nM)” value with mouse LPA1 [1] was determined as 20%; with human LPA1 [2], 47%. Moreover, the EC50 in the assay with human LPA1 [3] came out at 1.7 nM; with mouse LPA1 [4], 1.8 nM. The “Intracellular cAMP signaling inhibition IC50” value with human LPA1 [5] came to 25.1 nM. For the same molecule, the binding result in assay [6], in assay [7], in assay [8] and in assay [9] was “no binding (tested: 25 g/mL (so in the source))” throughout.

B2: 210309-2-A (antibody, mouse IgG1, V domains shown)
VH: QVQLQQSGAELARPGASVKLSCKASGYTFTSYGISWVKQRTGQGLEWIGEIYPRSGNTYYNEKFKGRATLTADKSSSTAYMELRSLTSEDSAVYFCARESILLRLGWYFDVWGTGTTVTVSS
VL: DIQMTQSPASLSASVGGTVTITCRASENIYRFLAWYQQKQGKSPQLLVYNAKTLAEGVPSRFSGSGSGTQFSLKINSLQPEDFGIYYCQHHYGPPLTFGAGTKLELK
notes: as for B1
Take B2: the “Intracellular cAMP signaling inhibition (Inhibition rate %/100 nM)” value in the assay with mouse LPA1 [1] and with human LPA1 [2] was 32% each time. Further, the concentration for a half-maximal effect (EC50) with human LPA1 [3] was 1.4 nM; with mouse LPA1 [4], 2.1 nM. The “Intracellular cAMP signaling inhibition IC50” value in the assay with human LPA1 [5] worked out at 21.8 nM. Besides, the binding result in assay [6], in assay [7], in [8] and in assay [9] was “no binding (tested: 25 g/mL (so in the source))” each time.

B3: 210420-1-H (antibody, mouse IgG1, V domains shown)
VH: QFQLQQSGAELARPGASVKLSCKASGYTFASFGISWVKQRTGQGLEYIGEIYPRSGTTYFNEKFRGKATLTADKSSSTAYMELRSLTSEDSAVYFCAREGVRRYAMDYWGQGTSVTVSS
VL: DIQVTQSPASLSASVGETVTITCRASGNIYSFLAWYQQKQGKSPQLLVYNAKTLAEGVPSRFSGSGSGTQFSLKISSLQPEDFGSYYCQHHYGIPLTFGGGTKLDLK
notes: Mouse monoclonal from mouse LPA1 immunization
Regarding B3, the figures for the “Intracellular cAMP signaling inhibition (Inhibition rate %/100 nM)” value with mouse LPA1 [1] and with human LPA1 [2] were 37% and 22%, respectively. For the same molecule, the EC50 amounted to 2.5 nM with human LPA1 [3] and 1.6 nM with mouse LPA1 [4]. Further, in the assay with human LPA1 [5], the “Intracellular cAMP signaling inhibition IC50” value was determined as 49.1 nM. For the same molecule, the binding result in [6], in assay [7], in assay [8] and in assay [9] was “no binding (tested: 25 g/mL (so in the source))” each time.

B4: 211222-1-A (antibody, mouse IgG1, V domains shown)
VH: QVQVHQSGAELARPGASVRLSCKASGYTFTSFGVNWVKQRTGQGLEWIGQIYPRSGTTYHNERFKGKATLTADKSSSTAYMELRSLTSEDSAVYFCAREGDRYSLAYWGQGTLVTVSA
VL: DIQMTQSPASLSASVGETVTITCRASENIYRFLAWYQQKQGKSPQLLVSNAKTLAEGVPSRFSGSGSGTQFSLKINYLQPEDFGNYYCQHHYGIPLTFGAGTKLELK
notes: as for B1
B4: the figures for the “Intracellular cAMP signaling inhibition (Inhibition rate %/100 nM)” value with mouse LPA1 [1] and in the assay with human LPA1 [2] were 30% and 1%, respectively. Besides, the EC50 with human LPA1 [3] amounted to 2.3 nM; with mouse LPA1 [4], 2 nM. Moreover, in the assay with human LPA1 [5], the “Intracellular cAMP signaling inhibition IC50” value was determined as 69.9 nM. In addition, the binding result in assay [6], in assay [7], in assay [8] and in assay [9] was “no binding (tested: 25 g/mL (so in the source))” in each case.

B5: 210310-1-D (antibody, mouse IgG1, V domains shown)
VH: QVQVQQSGAELARPGASVRLSCKASGYTFTSFGVNWVKQRTGQGLEWIGQIYPRTGTTYHNERFKGKATLTTDKSSSTAYMELRSLTSEDSAVYFCAREGDRYSLAYWGQGTLVTVSA
VL: DIQMTQSPASLSASVGETVTITCRASENIYRFLAWYQQKQGKSPQLLVYNAKTLVEGVPSRFSGSGSGTQFSLKINNLQPEDFGSYYCQHHYGIPLTFGAGTKLELK
notes: as for B1
B5: the results for the “Intracellular cAMP signaling inhibition (Inhibition rate %/100 nM)” value with mouse LPA1 [1] and in the assay with human LPA1 [2] were 25% and 22%, respectively. Moreover, the EC50 turned out to be 2.7 nM with human LPA1 [3] and 2.1 nM with mouse LPA1 [4]. The “Intracellular cAMP signaling inhibition IC50” value with human LPA1 [5] came to 60.5 nM. Moreover, the binding result in assay [6], in [7], in [8] and in [9] was “no binding (tested: 25 g/mL (so in the source))” each time.
